Experimental data reported in paper PMC5667929, “Combinatorial action of Grainyhead, Extradenticle and Notch in regulating Hox mediated apoptosis in Drosophila larval CNS” (PLoS Genetics, 2017).

Biological target: T1, His tagged Grh (551-1333 aa) (Drosophila, UniProt P13002 551-1333)
T1 construct: Grainyhead (Grh), Drosophila transcription factor, residues 551-1333; also called His-Grh; Grainyhead; source: bacterial culture (induced two hours with 0.5mM IPTG at 18°C), in lysate for the pull-down
T1 sequence (P13002 551-1333): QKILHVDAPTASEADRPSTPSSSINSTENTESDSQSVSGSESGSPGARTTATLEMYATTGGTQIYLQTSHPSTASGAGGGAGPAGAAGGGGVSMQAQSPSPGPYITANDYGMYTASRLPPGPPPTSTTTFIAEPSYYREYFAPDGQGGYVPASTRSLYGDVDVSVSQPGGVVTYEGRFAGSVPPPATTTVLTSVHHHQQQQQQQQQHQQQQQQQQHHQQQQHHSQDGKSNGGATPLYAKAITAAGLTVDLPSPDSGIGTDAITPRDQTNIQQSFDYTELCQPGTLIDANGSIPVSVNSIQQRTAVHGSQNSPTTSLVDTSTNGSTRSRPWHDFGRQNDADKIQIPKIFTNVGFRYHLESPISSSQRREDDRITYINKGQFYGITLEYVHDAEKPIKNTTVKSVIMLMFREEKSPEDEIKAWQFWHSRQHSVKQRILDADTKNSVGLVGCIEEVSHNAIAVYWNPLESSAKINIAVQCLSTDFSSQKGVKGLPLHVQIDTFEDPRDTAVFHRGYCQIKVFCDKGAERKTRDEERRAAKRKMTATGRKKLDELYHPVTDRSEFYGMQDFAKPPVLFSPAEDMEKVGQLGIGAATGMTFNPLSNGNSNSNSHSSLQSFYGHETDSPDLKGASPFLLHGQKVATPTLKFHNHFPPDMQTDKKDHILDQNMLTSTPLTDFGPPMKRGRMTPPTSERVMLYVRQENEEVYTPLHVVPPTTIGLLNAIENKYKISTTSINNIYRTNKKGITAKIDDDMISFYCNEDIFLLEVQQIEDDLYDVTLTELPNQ
Assay: native gel or EMSA; proteins (100 or 200 ng) mixed with DNA oligos of motifs from the 1Kb F3B3 enhancer; complexes seen on DNA only; 20 ul, room temperature, 30 minutes; binding buffer with Tris pH 7.5, KCl, MgCl2, EDTA, DTT, BSA, glycerol, polydIdC
Details: both partners purified

B1: 6X His-tagged AbdA (residues 261-590) (domain or fragment)
chain: not shown
notes: Abdominal-A (AbdA), Drosophila Hox protein, residues 261-590; also called Hox
binding result: binds
